B1: anti-c-Met/anti-EGFR/anti-HER3 multispecific antibody MEH3-01S (bispecific antibody, human IgG2, kappa)
heavy: EVQLVESGGGLVQPGGSLRLSCAASGFTFTDYYMSWVRQAPGKGLEWLGFIRNKANGYTTEYSASVKGRFTISRDNSKNTLYLQMNSLRAEDTAVYYCARDNWFAYWGQGTLVTVSSASTKGPSVFPLAPCSRSTSESTAALGCLVKDYFPEPVTVSWNSGALTSGVHTFPAVLQSSGLYSLSSVVTVPSSNFGTQTYTCNVDHKPSNTKVDKTVERKCCVECPPCPAPPVAGPSVFLFPPKPKDTLMISRTPEVTCVVVDVSHEDPEVQFNWYVDGVEVHNAKTKPREEQFNSTFRVVSVLTVVHQDWLNGKEYKCKVSNKGLPAPIEKTISKTKGQPREPQVYTLPPSREEMTKNQVSLTCLVKGFYPSDIAVEWESNGQPENNYKTTPPMLDSDGSFFLYSKLTVDKSRWQQGNVFSCSVMHEALHNHYTQKSLSLSPGKGGGGSGGGGSGGGGSEVQLVESGGGLVQPGGSLRLSCAASGFTLSGDWIHWVRQAPGKCLEWVGEISAAGGYTDYADSVKGRFTISADTSKNTAYLQMNSLRAEDTAVYYCARESRVSFEAAMDYWGQGTLVTVSSGGGGSGGGGSGGGGSDIQMTQSPSSLSASVGDRVTITCRASQNIATDVAWYQQKPGKAPKLLIYSASFLYSGVPSRFSGSGSGTDFTLTISSLQPEDFATYYCQQSEPEPYTFGCGTKVEIK
light: DIQMTQSPSSLSASVGDRVTITCKSSQSLLASGNQNNYLAWYQQKPGKAPKMLIIWASTRVSGVPSRFSGSGSGTDFTLTISSLQPEDFATYYCQQSYSRPYTFGQGTKVEIKRTVAAPSVFIFPPSDEQLKSGTASVVCLLNNFYPREAKVQWKVDNALQSGNSQESVTEQDSKDSTYSLSSTLTLSKADYEKHKVYACEVTHQGLSSPVTKSFNRGEC
notes: DL11f scFv fused to the C-terminus of the heavy chain (Fc) of the anti-c-Met IgG2 antibody SAIT301
B2: AbF46, a mouse antibody to c-Met (antibody, V domains shown)
VH: EVKLVESGGGLVQPGGSLRLSCATSGFTFTDYYMSWVRQPPGKALEWLGFIRNKANGYTTEYSASVKGRFTISRDNSQSILYLQMDTLRAEDSATYYCARDNWFAYWGQGTLVTVSA
VL: DILMTQSPSSLTVSAGEKVTMSCKSSQSLLASGNQNNYLAWHQQKPGRSPKMLIIWASTRVSGVPDRFIGSGSGTDFTLTINSVQAEDLAVYYCQQSYSAPLTFGAGTKLELK
notes: Tested as hybridoma culture supernatant in the selection ELISA; also called monoclonal antibody of hybridoma KCLRF-BP-00220

What was measured:
[1] = molecular target: T1, HER3-Fc (#344-ER, R&D Systems) (UniProt P21860 20-643); assay: SPR (Biacore T100), MEH3-01S captured by human Fab binder on CM5 chip, HER3-Fc injected
T1 construct: Bought reagent; not shown: Fc part of the bought fusion; not described
Experimental: (§1) The affinity of the anti-c-Met/anti-EGFR/anti-HER3 multispecific antibody prepared in Example 2 to EGFR and HER3 was measured. A human Fab binder (GE Healthcare) was immobilized at the surface of a CM5 chip (#BR-1005-30, GE) according to the manufacturer's specifications. About 90 to 120 RU of the MEH3-01S was captured, and the EGFR-Fc(#344-ER, R&D Systems) or HER3-Fc(#344-ER, R&D Systems) was injected at various concentrations into the captured antibody. 10 mM Glycine-HCl (pH 1.5) solution was injected thereto to regenerate the surface.
(§2) To examine affinity of the antibody, the data obtained from this experiment was fitted using BIAevaluation software (GE Healthcare, Biacore T100 evaluation software).

[2] = molecular target: T2, EGFR-Fc (#344-ER, R&D Systems) (UniProt P00533 25-645); assay: SPR (Biacore T100), MEH3-01S captured by human Fab binder on CM5 chip, EGFR-Fc injected
T2 construct: Bought reagent; not shown: Fc part of the bought fusion; not described
Experimental: as §1, §2

[3] = molecular target: T3, human c-Met/Fc fusion protein (R&D Systems) (human, UniProt P08581 25-932); assay: ELISA, hybridoma culture on plate-bound human c-Met/Fc fusion protein
T3 construct: Bought reagent, coated on ELISA plates; also called human c-Met/Fc protein; not shown: Fc part of the bought fusion; not described
Experimental: The hybridoma cell culture obtained in Reference Example 1.1.2 was added in an amount of 50 μL to each well of the plates and incubated for 1 hour. The cells remaining unreacted were washed out with a sufficient amount of Tris-buffered saline and Tween 20 (TBST). Goat anti-mouse IgG-horseradish peroxidase (HRP) was added to the plates and incubated for 1 hour at room temperature. The plates were washed with a sufficient amount of TBST, followed by reacting the peroxidase with a substrate (OPD). Absorbance at 450 nm was measured on an ELISA reader.

T1 sequence (P21860 20-643 limits assumed): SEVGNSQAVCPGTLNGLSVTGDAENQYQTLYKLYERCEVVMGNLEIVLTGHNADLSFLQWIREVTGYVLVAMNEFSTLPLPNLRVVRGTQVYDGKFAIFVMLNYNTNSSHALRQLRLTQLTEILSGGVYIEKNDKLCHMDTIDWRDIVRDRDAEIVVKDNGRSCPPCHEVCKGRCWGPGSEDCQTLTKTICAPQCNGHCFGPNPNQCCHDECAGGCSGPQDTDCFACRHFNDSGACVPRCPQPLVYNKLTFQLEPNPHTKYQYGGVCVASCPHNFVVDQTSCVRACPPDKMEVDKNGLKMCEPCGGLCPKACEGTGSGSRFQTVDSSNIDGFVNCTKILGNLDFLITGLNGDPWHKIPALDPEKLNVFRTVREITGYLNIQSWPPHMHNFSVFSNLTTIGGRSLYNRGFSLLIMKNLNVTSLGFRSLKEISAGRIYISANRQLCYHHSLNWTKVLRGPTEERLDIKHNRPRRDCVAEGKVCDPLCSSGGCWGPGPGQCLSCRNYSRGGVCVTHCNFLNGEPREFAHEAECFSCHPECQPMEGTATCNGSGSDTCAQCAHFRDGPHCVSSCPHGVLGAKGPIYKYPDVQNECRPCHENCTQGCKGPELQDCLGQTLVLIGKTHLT
T3 sequence (P08581 25-932 limits assumed): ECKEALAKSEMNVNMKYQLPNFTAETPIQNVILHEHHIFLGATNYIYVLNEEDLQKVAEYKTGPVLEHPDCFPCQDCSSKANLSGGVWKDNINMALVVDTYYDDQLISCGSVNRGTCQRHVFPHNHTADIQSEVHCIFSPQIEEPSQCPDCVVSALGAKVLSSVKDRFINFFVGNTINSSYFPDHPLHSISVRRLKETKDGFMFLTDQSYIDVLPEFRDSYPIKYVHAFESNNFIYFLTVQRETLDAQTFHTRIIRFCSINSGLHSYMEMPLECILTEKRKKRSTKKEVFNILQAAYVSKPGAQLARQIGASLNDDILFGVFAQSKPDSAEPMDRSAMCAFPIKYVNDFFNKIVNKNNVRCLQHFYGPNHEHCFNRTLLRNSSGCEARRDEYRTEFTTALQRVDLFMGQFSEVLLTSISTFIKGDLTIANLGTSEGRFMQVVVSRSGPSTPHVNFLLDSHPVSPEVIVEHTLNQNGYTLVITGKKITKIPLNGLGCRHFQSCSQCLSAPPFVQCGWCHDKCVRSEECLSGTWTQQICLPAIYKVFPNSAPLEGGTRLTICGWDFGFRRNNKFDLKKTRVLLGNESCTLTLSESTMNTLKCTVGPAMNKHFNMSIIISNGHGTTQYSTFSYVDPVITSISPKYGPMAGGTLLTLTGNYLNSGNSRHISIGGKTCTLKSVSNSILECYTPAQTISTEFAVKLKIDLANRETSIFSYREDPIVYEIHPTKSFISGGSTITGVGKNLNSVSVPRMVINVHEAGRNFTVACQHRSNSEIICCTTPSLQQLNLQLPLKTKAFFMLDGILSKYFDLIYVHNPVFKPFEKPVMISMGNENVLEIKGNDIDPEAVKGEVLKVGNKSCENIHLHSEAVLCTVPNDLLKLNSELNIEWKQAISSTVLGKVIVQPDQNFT

Binder	Kd [1] [pM]	koff [1] [s⁻¹]	kon [1] [M⁻¹ s⁻¹]	Kd [2] [pM]	koff [2] [s⁻¹]	kon [2] [M⁻¹ s⁻¹]	binding result [3]
B1	< 10	< 1.6e-05	3.4e+06	180	0.00011	1e+06	
B2							binds
